Consider six molecules from patent US8623627B2, “Labelling of fusion proteins with synthetic probes” (New England Biolabs, Inc, priority 2006, dated 2014).

One data set addresses T1, GST-ACT1 (Homo sapiens, UniProt P16455, A127T/A154D/C150Q/C62A/G131S/G132T/G153L/K125A/K32I/L33F/M134L/N157G/Q115S/Q116H/R128A/R135D/S151G/S152D/S159M/V148E/Y114R).
T1 construct: made in house
T1 sequence (P16455 1-182 K32I/L33F/C62A/Y114R/Q115S/Q116H/K125A/A127T/R128A/G131S/G132T/M134L/R135D/V148E/C150Q/S151G/S152D/G153L/A154D/N157G/S159M): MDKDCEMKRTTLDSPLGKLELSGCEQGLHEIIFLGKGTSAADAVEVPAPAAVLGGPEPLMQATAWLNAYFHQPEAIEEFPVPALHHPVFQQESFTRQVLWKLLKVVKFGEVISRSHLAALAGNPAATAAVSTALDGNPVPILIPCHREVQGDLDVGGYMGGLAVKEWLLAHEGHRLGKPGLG
In words: In vitro specific dual labelling assay, labelling of GST-ACT1. To be noted: equimolar GST-ACT1 and 6×His-^NAGT 0.5 μM, single substrate 5 μM, 24° C., 60 minutes. The class given is biochemical. As to the method:
(§1) Fluorescent dye-labelled protein mixtures were analyzed by SDS-PAGE, see Example 12. GST-ACT1: fusion protein of ACT 1 (SEQ ID NO:1) with glutathione S-transferase (GST). 6×His-AGT: fusion protein of ^NAGT (SEQ ID NO:2) with the short peptide 6×His. […] BCFL: compound 5 (Example 4). BCCy5: compound 10 (Example 8).
(§2) Labelling reactions were quenched by addition of 4× SDS buffer (8% SDS, 10% β-mercaptoethanol, 240 mM Tris pH 6.8, 40% glycerol) and incubation for 5 min at 95° C. Fluorescent dye-labelled protein mixtures were analyzed by SDS-PAGE as described above.

In another data set the target is T2, 6×His-^NAGT (Homo sapiens, UniProt P16455, A127T/A154D/C150Q/C62A/G131K/G132T/G153L/K125A/K32I/L33F/M134L/N157G/Q115S/Q116H/R128A/R135S/S151G/S152D/S159E).
T2 construct: ^NAGT is a 182 amino acid mutant of ^wtAGT in which the last 25 amino acids are deleted
T2 sequence (P16455 1-182 K32I/L33F/C62A/Q115S/Q116H/K125A/A127T/R128A/G131K/G132T/M134L/R135S/C150Q/S151G/S152D/G153L/A154D/N157G/S159E): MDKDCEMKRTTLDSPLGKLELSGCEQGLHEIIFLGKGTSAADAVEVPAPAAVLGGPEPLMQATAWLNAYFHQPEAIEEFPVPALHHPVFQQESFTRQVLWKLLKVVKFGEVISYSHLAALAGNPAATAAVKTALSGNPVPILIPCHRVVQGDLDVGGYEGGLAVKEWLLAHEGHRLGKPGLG
Put plainly: In vitro specific dual labelling assay, labelling of 6×His-^NAGT. The class given is biochemical. To be noted: equimolar GST-ACT1 and 6×His-^NAGT 0.5 μM, single substrate 5 μM, 24° C., 60 minutes. On the procedure: as §1, §2

Data set [1] is described as follows: Reaction rates of labelling of GST fusion proteins with BGFL. To be noted: for kBGFL: second-order rate constant, GST-fusion protein with BGFL, 50 mM HEPES pH 7.2, 24° C. The class given is biochemical. As to the method: (§3) The fluorescent readout of an SDS gel run after different time of incubation is shown on top with the corresponding graph at the bottom. The percentage of ACT-Fluorescein conjugate (% ACT-FL) formed from ACT is shown vs. time of incubation (min). […] GST-ACT10: fusion protein of ACT 10 (SEQ ID NO:12) with glutathione S-transferase (GST).
(§4) The genes of mutants isolated after phage selection according to Example 9 were amplified by PCR using primers 6 (N, AGT, SEQ ID NO:8) and 7 (C, AGT, SEQ ID NO:9) that contain, respectively, BamH1 and EcoR1 restriction sites for subsequent subcloning into pGEX-2T vector (Amersham Biosciences, Otelfingen, Switzerland). Expression and purification of proteins as GST-ACT fusion proteins were performed as previously described for AGT fusion proteins (A. Juillerat, T. Gronemeyer, A. Keppler, S. Grendreizig, H. Pick, H. Vogel, K. Johnsson, Chem. Biol. 10:313, 2003). […] Samples were taken at different times and the labelling reaction was quenched by addition of 4× SDS buffer (8% SDS, 10% β-mercaptoethanol, 240 mM Tris pH 6.8, 40% glycerol) and incubation at 95° C. for 5 min. The reaction advancement was determined by detection of the fluorescent dye-labelled proteins in SDS-PAGE gel and quantification of fluorescence intensity using a Pharox FX™ molecular imager. The data were fitted to a pseudo-first order reaction model. Second-order rate constants were then obtained by dividing the pseudo first-order constant by the concentration of fluorogenic substrate.

The nature of data set [2]: Reaction rates of labelling of GST fusion proteins with BCFL. The class given is biochemical. To be noted: for kBCFL: second-order rate constant, GST-fusion protein with BCFL, 50 mM HEPES pH 7.2, 24° C. As to the method: as §3, §4
Data set [3] can be described thus: Urea-induced unfolding, read out as ACT-Fluorescein formed with BCFL. The class given is physicochemical. To be noted: for half unfolding urea concentration C1/2: protein 0.5 μM, urea 0 to 8 M for 30 minutes, then 20 μM BCFL for 2 hours. As to the method: Shown is the percentage of ACT-Fluorescein (% ACT-FL) formed. The value obtained at 0 M urea [(NH2)2CO] is set to 100%. Protein (0.5 μM) was incubated in kinetic buffer (50 mM HEPES, pH 7.2, 1 mM DTT) supplemented with urea (0 to 8 M) for 30 minutes. Then the solution was adjusted to 20 μM BCFL and incubated for 2 hours. Samples were then boiled 5 min at 95° C. in SDS buffer. Fluorescent dye-labelled protein mixtures were analyzed by SDS-PAGE. The data set was fitted with Y=100/(1+10^((log C1/2−X)*HillSlope)) to get the half unfolding urea concentration C1/2. The following values of C1/2 were found for the different mutants: • ACT1 2.8±0.1 M; ACT9 4.1±0.1 M; ACT10 5.1±0.2 M.

For data set [4] the following is noted: versus ^wtAGT; cited from earlier work.

For “N-[4-(4-Aminopyrimidin-2-yloxymethyl)-benzyl]-Cy5-carboxamide [BCCy5]”, the “labelling of GST-ACT1” value at GST-ACT1 was “complete labelling”. Further, the “labelling of 6×His-^NAGT” value at 6×His-^NAGT is listed as 6%.
Consider `Nc1ccnc(OCc2ccc(CNC(=O)c3ccc4c(c3)C3(OC4=O)c4ccc(O)cc4Oc4cc(O)ccc43)cc2)n1` [BCFL, N-[4-(4-Aminopyrimidin-2-yloxymethyl)-benzyl]-fluorescein-6-carboxamide], for which the “labelling of GST-ACT1” value at GST-ACT1 is on record as “complete labelling”. On 6×His-^NAGT, the “labelling of 6×His-^NAGT” value is reported as 76%.
“O^6-[4-(Cy5)-Aminomethyl]-benzyl guanine [BGCy5]”: the “labelling of 6×His-^NAGT” value on 6×His-^NAGT is recorded as “complete labelling”.

B1: ACT 10: alkylcytosine transferase 10, SEQ ID NO:12, from error prone PCR of ACT9 (protein)
chain: MDKDCEMKRTTLDSPLGKLELSGCEQGLHEIIFLGKGTSAADAVEVPAPAAVLGGPEPLIQATAWLNAYFHQPEAIEEFPVPALHHPVFQQESFTRQVLWKLLKVVKFGEVISESHLAALVGNPAATAAVNTALDGNPVPILIPCHRVVQGDSDVGPYLGGLAVKEWLLAHEGHRLGKPGLG
modifications: alyklcytosine transferase 10 derived from O6- alkylguanine-DNA alkyltransferase
Turning to B1, the kBG in data set [1] (FIG. 2, 0.5 μM GST-ACT10 with BGFL) was roughly 10 M⁻¹ s⁻¹. Also, in data set [1], the kBGFL is 10 M⁻¹ s⁻¹. In data set [2], the reactivity towards benzylcytosine result is “high reactivity” and the kBCFL was found to be 1130 M⁻¹ s⁻¹. Also, the kBC in data set [2] (FIG. 2, 0.5 μM GST-ACT10 with BCFL) is 1130 ± 150 M⁻¹ s⁻¹. Also, the “stability against denaturation by urea” value in data set [3] (4 M urea) was “high stability”. For the same molecule, in data set [3], the “half unfolding urea concentration C1/2” value stood at 5.1 ± 0.2 M.

B2: ACT 1: alkylcytosine transferase 1, SEQ ID NO:1, derived from ^NAGT by directed evolution (protein)
chain: MDKDCEMKRTTLDSPLGKLELSGCEQGLHEIIFLGKGTSAADAVEVPAPAAVLGGPEPLMQATAWLNAYFHQPEAIEEFPVPALHHPVFQQESFTRQVLWKLLKVVKFGEVISRSHLAALAGNPAATAAVSTALDGNPVPILIPCHREVQGDLDVGGYMGGLAVKEWLLAHEGHRLGKPGLG
modifications: alkylcytosine transferase 1 derived from O6- alkylguanine-DNA alkyltransferase
In turn, B2 gave a kBGFL in data set [1] of less than 10 M⁻¹ s⁻¹. In data set [2], this molecule returned a kBCFL of 730 M⁻¹ s⁻¹. In addition, the “half unfolding urea concentration C1/2” value in data set [3] is 2.8 ± 0.1 M.

B3: ^NAGT: 182 amino acid mutant of ^wtAGT, SEQ ID NO:2, starting point for directed evolution (protein)
chain: MDKDCEMKRTTLDSPLGKLELSGCEQGLHEIIFLGKGTSAADAVEVPAPAAVLGGPEPLMQATAWLNAYFHQPEAIEEFPVPALHHPVFQQESFTRQVLWKLLKVVKFGEVISYSHLAALAGNPAATAAVKTALSGNPVPILIPCHRVVQGDLDVGGYEGGLAVKEWLLAHEGHRLGKPGLG
modifications: O6-alkylguanine-DNA alkyltransferase (AGT) mutant
The molecule B3 displayed a kBGFL in data set [1] of 28000 M⁻¹ s⁻¹. Besides, the “higher activity towards benzylguanine derivatives than wild-type ^wtAGT” value in data set [4] is reported as “approximately 50 fold”. For the same molecule, the kBCFL in data set [2] stood at 26 M⁻¹ s⁻¹.
